Results taken from patent US20170369592A1, “NOVEL ANTI-FIBROBLAST ACTIVATION PROTEIN (FAP) ANTIBODIES AND USES DERIVED THEREOF” (Mabimmune Diagnostics AG, priority 2015, published 2017).

Tests used:
[1] = test system: multiple myeloma cells and tumor stroma in the syngeneic MOPC315.BM mouse model; assay: Immunofluorescence on murine multiple myeloma tissues; settings: Cy5 labelled antibody, MOPC315.BM BALB/c mice
Protocol: BALB/c mice were injected with 2×10^6 of the murine multiple myeloma cell line […] intravenously. BALB/c mice were injected with a vehicle-only control. Bone tissue was harvested and fixed in 4% PFA, decalcified in 10% EDTA (pH 7.4), embedded in paraffin before being sectioned (4 μm) and rehydrated. Then, CD138 mAb (Clone 281-2, BD Pharmingen) and Cy5 labelled NI-206.82C2 were used to identify MOPC315.BM.Luc cell infiltration, and NI-206.82C2 binding to these cells and surrounding stromal cells in the tissue sections. Stained tissue sections were then imaged using a fluorescent microscope (FIG. 13).

[2] = test system: carotid artery photochemical injury-induced thrombosis; assay: Carotid artery photochemical injury-induced thrombosis model; type: in vivo, mouse; settings: 95% confidence interval=0.01-0.16, p<0.0001
Protocol: The carotid artery photochemical injury-induced thrombosis model begins with anesthesia by intraperitoneal injection of sodium pentobarbital (87 mg/kg body weight). After slight tail warming (using warm water) rose bengal (10 mg/mL in PBS) is injected into the tail vein in a volume of 0.12 mL at a concentration of 50 mg/kg. Mice will then be secured in a supine position (with the head pointing towards the operator) and placed on a heating pad (rectal temperature will be monitored) under a dissecting microscope. Following a (2.5-3 cm) midline cervical incision and a small incision of the larynx to provide a tracheostoma, by blunt preparation the right common carotid artery is exposed and cleared of connective tissue. A surgical stitch is employed to fix the stemocleidomastoid muscle aside to the right and increase access area to the right carotid artery. Care must be taken to avoid excessive vessel manipulation during procedures. […] Flow will be measured during these 60 minutes and for further 60 minutes (max time elapse 120 minutes) or until occlusion occurs. […]
Mice will be placed on a heating pad, to avoid a drop of body temperature. Heart rate (probe measuring the blood flow will also measure the heart rate) will be monitored during the surgery. […]

[3] = biological target: directly coated FAP peptides mixture (cFAP); assay: Direct ELISA, mixture of FAP-specific peptides directly coated; type: binding, human; settings: non-linear regression
Protocol: ELISA assays were performed with varying antibody concentrations to validate the binding of the exemplary antibodies of the present invention to FAP and to be able to determine their half maximal effective concentration (EC50). For the exemplary recombinant human NI-206.82C2, NI-206.59B4, NI-206.22F7, NI-206.27E8, NI-206.12G4 and NI-206.17A6 antibodies, 96-well microplates (Costar, Corning, USA) were coated with FAP, with a mixture of the 3 peptides or with BSA (Sigma-Aldrich, Buchs, Switzerland) diluted to a concentration of 5 μg/ml in carbonate ELISA coating buffer (15 mM Na2CO3, 35 mM NaHCO3, pH 9.4) for the direct ELISA. For the capture ELISA, the microplates were coated with mouse anti-His monoclonal antibody (Clontech) diluted to a concentration of 3 μg/ml in PBS, the plates were then blocked, FAP or BSA were diluted to a concentration of 2 μg/ml in PBS and added to the plates to be captured. The binding efficiency of the antibodies was then tested. The exemplary NI-206.82C2 antibody specifically and strongly binds to the captured FAP and less efficiently to the directly coated FAP. The exemplary NI-206.59B4 antibody specifically, strongly and similarly binds to the captured FAP and to the directly coated FAP.
The EC50 values were estimated by a non-linear regression using GraphPad Prism (San Diego, USA) software. […] The binding of NI-206.12G4 towards sFAP was not tested.

EC50, binding to directly coated FAP peptides mixture (cFAP) [3]: did not show any binding
B1: NI-206.82C2: recombinant human memory B cell-derived monoclonal anti-FAP IgG1 antibody, variable regions in FIG. 1A, FAP inhibitory (antibody, V domains shown)
VH: QVQLQQSGPGLVKPSQTLSLTCAISGDSVSSNSVTWNWIRQSPSRGLEWLGRTYYRSKWYNDYAVSVKGRITINPDTSKNQFYLQLKSVTPEDAAVYYCARDSSILYGDYWGQGTLVTVSS
VL: QAVLTQPSSLSASPGASASLTCTLPSGINVGTYRIFWFQQKPGSPPQYLLSYKSDSDNHQGSGVPSRFSGSKDASANAGILLISGLQSEDEADYYCMIWHSSAWVFGGGTKLTVL
binding to multiple myeloma cells and tumor stroma [1]: binds
Log-rank hazard ratio, arterial occlusion versus 43A11 [2]: 0.04
